Measurements reported in ChEMBL document CHEMBL1123679, “5-Quinone derivatives of 2'-deoxyuridine 5'-phosphate: inhibition and inactivation of thymidylate synthase, antitumor cell, and antiviral studies” (J Med Chem, 1987).

B1: Thymidylate synthase (Mus musculus), P07607 (protein)
chain: MLVVGSELQSDAQQLSAEAPRHGELQYLRQVEHILRCGFKKEDRTGTGTLSVFGMQARYSLRDEFPLLTTKRVFWKGVLEELLWFIKGSTNAKELSSKGVRIWDANGSRDFLDSLGFSARQEGDLGPVYGFQWRHFGAEYKDMDSDYSGQGVDQLQKVIDTIKTNPDDRRIIMCAWNPKDLPLMALPPCHALCQFYVVNGELSCQLYQRSGDMGLGVPFNIASYALLTYMIAHITGLQPGDFVHTLGDAHIYLNHIEPLKIQLQREPRPFPKLKILRKVETIDDFKVEDFQIEGYNPHPTIKMEMAV
B2: Thymidylate synthase (Lactobacillus casei), P00469 (protein)
chain: MLEQPYLDLAKKVLDEGHFKPDRTHTGTYSIFGHQMRFDLSKGFPLLTTKKVPFGLIKSELLWFLHGDTNIRFLLQHRNHIWDEWAFEKWVKSDEYHGPDMTDFGHRSQKDPEFAAVYHEEMAKFDDRVLHDDAFAAKYGDLGLVYGSQWRAWHTSKGDTIDQLGDVIEQIKTHPYSRRLIVSAWNPEDVPTMALPPCHTLYQFYVNDGKLSLQLYQRSADIFLGVPFNIASYALLTHLVAHECGLEVGEFIHTFGDAHLYVNHLDQIKEQLSRTPRPAPTLQLNPDKHDIFDFDMKDIKLLNYDPYPAIKAPVAV

What was measured:
[1] = substrate: CC1=C(C)C(=O)C(c2cn([C@H]3C[C@H](O)[C@@H](COP(=O)(O)O)O3)c(=O)[nH]c2=O)=C(C)C1=O; details: L1210
[2] = substrate: CC1=C(c2cn([C@H]3C[C@H](O)[C@@H](COP(=O)(O)O)O3)c(=O)[nH]c2=O)C(=O)c2ccccc2C1=O; details: L1210
[3] = substrate: CC1=C(C)C(=O)C(c2cn([C@H]3C[C@H](O)[C@@H](COP(=O)(O)O)O3)c(=O)[nH]c2=O)=CC1=O; details: L1210
[4] = substrate: CC1=C(C)C(=O)C(c2cn([C@H]3C[C@H](O)[C@@H](COP(=O)(O)O)O3)c(=O)[nH]c2=O)=C(C)C1=O; details: Lacticaseibacillus casei
[5] = substrate: CC1=C(c2cn([C@H]3C[C@H](O)[C@@H](COP(=O)(O)O)O3)c(=O)[nH]c2=O)C(=O)c2ccccc2C1=O; details: Lacticaseibacillus casei
[6] = substrate: CC1=C(C)C(=O)C(c2cn([C@H]3C[C@H](O)[C@@H](COP(=O)(O)O)O3)c(=O)[nH]c2=O)=CC1=O; details: Lacticaseibacillus casei
[7] = compound: COc1c(C)c(-c2cn([C@H]3C[C@H](O)[C@@H](COP(=O)(O)O)O3)c(=O)[nH]c2=O)c(OC)c2ccccc12; assay: (§1) Ability to inhibit the thymidylate synthase from Lactobacillus casei was determined and expressed as inhibition constant(Km); details: Lacticaseibacillus casei
[8] = compound: O=C1C=CC(=O)C(c2cn([C@H]3C[C@H](O)[C@@H](COP(=O)(O)O)O3)c(=O)[nH]c2=O)=C1; assay: as §1; details: Lacticaseibacillus casei
[9] = compound: COc1c(C)c(C)c(OC)c(-c2cn([C@H]3C[C@H](O)[C@@H](COP(=O)(O)O)O3)c(=O)[nH]c2=O)c1C; assay: as §1; details: Lacticaseibacillus casei
[10] = substrate: COc1cc(-c2cn([C@H]3C[C@H](O)[C@@H](COP(=O)(O)O)O3)c(=O)[nH]c2=O)c(OC)c(C)c1C; details: Lacticaseibacillus casei

Protein | Km [1] [µM] | Km [2] [µM] | Km [3] [µM] | Km [4] [µM] | Km [5] [µM] | Km [6] [µM] | Km [7] [µM] | Km [8] [µM] | Km [9] [µM] | Km [10] [µM]
B1 | 0.57 | 0.6 | 2.46 | – | – | – | – | – | – | –
B2 | – | – | – | 6.98 | 6.41 | 6.98 | 5.25 | 7.6 | 5.25 | 5.25
